In one experiment the target is T1, mouse CLDN18.2 (mouse, UniProt P56857 10-264, Expressed on HEK293T cells as a fusion to GFP. The GFP is left out of the letters.).
T1 construct: also called mouse CLDN18.2 fused to GFP; not shown: The GFP fused to mouse CLDN18.2, and any linker to it
T1 chain: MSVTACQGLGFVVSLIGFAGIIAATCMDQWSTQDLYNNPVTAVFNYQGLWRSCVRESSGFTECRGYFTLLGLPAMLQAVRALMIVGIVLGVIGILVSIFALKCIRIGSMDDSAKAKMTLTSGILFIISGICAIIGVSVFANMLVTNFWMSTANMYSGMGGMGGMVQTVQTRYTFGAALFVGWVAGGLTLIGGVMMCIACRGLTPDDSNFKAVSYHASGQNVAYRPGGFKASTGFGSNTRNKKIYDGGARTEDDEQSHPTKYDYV
Briefly: FACS dose curve, AF647-labelled IgG on HEK293T mouse CLDN18.2 MP cells.

Experiment [1] concerns the target T2, human Claudin-18.2 (CLDN18.2) (human).
T2 construct: On cells: fused to GFP in engineered HEK293T cells (clone C12), endogenous in HUPT4 and SNU601 cells; also called human CLDN18.2
Nature of the experiment: FACS, 1.5 ug antibody, HEK293T-CLDN18.2 C12 clone cells.

Experiment [2] has as its target T2, human Claudin-18.2 (CLDN18.2). Briefly: FACS, 1.5 ug antibody, HUPT4 cells (endogenous CLDN18.2).
Procedure: FACS assays were carried out to determine relative antigen binding strengths of the humanized antibodies (at either 1.5 μg or 0.3 μg) for binding to CLDN18.2 as expressed by the indicated cancer cell lines.
Experiment [3] shares this target. Nature of the experiment: KinExA, cell-based; HUPT4, Versene; Error% 3.57; 95% CI 0.31nM - 1.34nM; equilibrium curves 1nM, 20nM. (In KinExA the mixture passes briefly over coated beads that capture the unbound partner.)
Procedure: (§1) For each KD measurement, in general, at least two antibody concentration curves were prepared using the same batch of cells (same passage) to avoid changes in expression level from passage to passage. Briefly, either HEK293T CLDN18.2-mGFP C12 cells (engineered overexpression cell line) or HUPT4 cells (native positive cell line) were detached using Versene. Cells were then equilibrated in different concentrations of the antibody solutions, respectively, in 2% FBS/DMEM or 2% FBS/RPMI at 4° C. overnight. Cells concentrations started with 1.8 ×10^7 cells/ml and 2-fold serial dilution was performed to 10 points. In addition, antibody solution only (Signal 100%) and nonspecific binding (NSB) buffer only were included in each curve. Next day, spin the cells at 1500 rpm for 10 mins and saved the supernatant for measurement. […] The KD and antigen expression level were calculated using two antibody curves analyzed by n-curve analysis.
For experiment [4] the target is unchanged. Nature of the experiment: KinExA, cell-based; HEK293T-CLDN18.2-mGFP C12, Versene; Error% 2.35; 95% CI 2.12nM - 6.47nM; equilibrium curves 500pM, 2nM, 10nM.
Procedure: as §1
Experiment [5] shares this target. Briefly: KinExA, cell-based; HEK293T-CLDN18.2-mGFP C12, Versene; Error% 1.84; 95% CI 2.03nM - 4.44nM; equilibrium curves 500pM, 2nM, 10nM.
Procedure: as §1
For experiment [6] the target is unchanged. Briefly: KinExA, cell-based; HUPT4, Versene; Error% 3.73; 95% CI 0.87nM - 3.23nM; equilibrium curves 1nM, 20nM.
Procedure: as §1
The target is the same in experiment [7]. Nature of the experiment: flow cytometry; HUPT4 over M202 [Cont.].
Procedure: (§2) The samples were then measured by Intellicyt® iQue Advanced Flow Cytometry Platform.
Experiment [8] has the same target. Briefly: flow cytometry; HEK293T CLDN18.2 over HEK293T parental [Cont.]. For orientation: Flow cytometry measures light scatter and fluorescence of single cells or particles in a stream.
Procedure: as §2
Experiment [9] has the same target. Briefly: KinExA, cell-based; HUPT4, Versene; Error% 2.72; 95% CI 0.58nM - 1.43nM; equilibrium curves 1nM, 20nM.
Procedure: as §1
For experiment [10] the target is unchanged. Briefly: KinExA, cell-based; HEK293T-CLDN18.2-mGFP C12, Versene; Error% 7.72; 95% CI 0.18nM - 11.91nM; equilibrium curves 500pM and 10nM.
Procedure: as §1
The target is the same in experiment [11]. Nature of the experiment: KinExA, cell-based; HEK293T-CLDN18.2-mGFP C12, Versene; Error% 7.19; 95% CI 0.43nM - 6.90nM; equilibrium curves 500pM and 10nM.
Procedure: as §1
The target is the same in experiment [12]. Briefly: KinExA, cell-based; HUPT4, Versene; Error% 3.90; 95% CI 0.28nM - 1.32nM; equilibrium curves 1nM, 20nM.
Procedure: as §1

Positions count from the first letter of the chain named.

B1: Ab 400 (antibody, V domains shown)
VH: QVQLKESGPGLVAPSQSLSITCTVSGFSLNSYGVSWVRQPPGKGLEWLGVIWGDGSTNYHSALKSRLNINKDKSKSQVFLKLNSLQTDDTATYYCARPTRGNAMDYWGQGTSVTVSS
VL: DVVMTQSPSSLTVTAGEKVTMNCKSSQSLLNSGNQRSYLTWYQQKPGQPPKLLIYWASTRESGAPDRFTGSGSGADFTLTISSVQAEDLAIYYCQNNYNYPFTFGSGTKLEIK
For the molecule B1, in the experiment with mouse CLDN18.2, the binding result is “no binding (tested: 0.32 nM to 1000 nM)”.

B2: HuAb307-3 (antibody, V domains shown)
VH: EVQLLESGGGLVQPGGSLRLSCAASGFTFSSYTMSWVRQAPGKGLEWVATIIIGGSYTYYADSVKGRFTISRDNSKNTLYLQMNSLRAEDTAVYYCTRLVKGNAMDYWGQGTLVTVSS
VL: DIVMTQSPDSLAVSLGERVTMNCKSSQSLLNSGNQKNYLSWYQQKPGQPPKLLFYWASTRESGVPDRFSGSGSGTDFTLTISSVQAEDVAVYYCQNDYSYPFTFGQGTKLEIK
notes: Humanized, expressed as full-length IgG
As usually defined, the Kd is the free concentration of one partner at which half of the binding sites on the other are occupied at equilibrium, for simple one-to-one binding. Read a low Kd as higher affinity. With B2, the “FACS signal (relative antigen binding strength)” value was 151000 in experiment [1] and 34000 in experiment [2]. Besides, the Kd in experiment [3] worked out at 0.69 nM; in [4], 3.65 nM.

B3: 02-0358-h3 (antibody, V domains shown)
VH: EVQLVESGGGLVQPGGSLRLSCAVSGFTFSSFGMHWVRQAPGKGLEWVAYISSGTTNIYYADSVKGRFTVSRDNAKNSLYLQMNSLRAEDTAVYYCVRSGYYGNSLDYWGQGTLVTVSS
VL: B2 VL with L30F, K36R, S40T, F54I, D97V, S99I, F102L
notes: Humanized IgG
Take B3: the Kd was determined as 3 nM in experiment [5] and 1.7 nM in experiment [6].

B4: 02-0358-10h antibody (antibody, V domains shown)
VH: B3 VH with N104S
VL: B2 VL with L30F, N31Q, K36R, S40T, F54I, D97V, S99I, F102L
In the case of B4, the ratio native in experiment [7] was 54.1. Besides, in experiment [8], the “ratio OE” value is 274.

B5: 02-0307-h6 (antibody, V domains shown)
VH: B2 VH
VL: B2 VL with N31S
notes: Humanized IgG (detected with anti-human IgG Fc)
Regarding B5, in [7], the ratio native is 137. Also, the Kd in experiment [9] was 0.93 nM; in [10], 1.42 nM. Besides, the “ratio OE” value in experiment [8] worked out at 482.

B6: 02-0358-8h antibody (antibody, V domains shown)
VH: B3 VH with N104Q
VL: B2 VL with L30F, N31Q, K36R, S40T, F54I, D97V, S99I, F102L
B6: the ratio native in [7] was 57.9. Besides, the “ratio OE” value in experiment [8] was found to be 229.

B7: 02-0358-6h antibody (antibody, V domains shown)
VH: B3 VH with N104Q
VL: B2 VL with L30F, K36R, S40T, F54I, D97V, S99I, F102L
As for B7, in [7], the ratio native is 79.9. Also, the “ratio OE” value in experiment [8] was determined as 435.

B8: 02-0358-11h antibody (antibody, V domains shown)
VH: B3 VH with N104S
VL: B2 VL with L30F, N31S, K36R, S40T, F54I, D97V, S99I, F102L
B8: the ratio native in [7] came out at 88.8. In experiment [8], the “ratio OE” value turned out to be 456.

B9: 02-0358-9h antibody (antibody, V domains shown)
VH: B3 VH with N104Q
VL: B2 VL with L30F, N31S, K36R, S40T, F54I, D97V, S99I, F102L
Turning to B9, the ratio native in experiment [7] came out at 93.4. The “ratio OE” value in [8] came to 453.

B10: 02-0358-4h antibody (antibody, V domains shown)
VH: B3 VH
VL: B2 VL with L30F, N31Q, K36R, S40T, F54I, D97V, S99I, F102L
Regarding B10, in [7], the ratio native was determined as 94. Also, the “ratio OE” value in experiment [8] amounted to 575.

B11: 02-0358-7h antibody (antibody, V domains shown)
VH: B3 VH with N104S
VL: B2 VL with L30F, K36R, S40T, F54I, D97V, S99I, F102L
Consider B11, for which the ratio native in experiment [7] was determined as 94.1. Besides, the “ratio OE” value in [8] came out at 449.

B12: 02-0358-h5 (antibody, V domains shown)
VH: B3 VH
VL: B2 VL with L30F, N31S, K36R, S40T, F54I, D97V, S99I, F102L
notes: Humanized IgG
B12: the ratio native in experiment [7] was 111. Moreover, the Kd in experiment [11] is 1.81 nM; in experiment [12], 0.67 nM. For the same molecule, in experiment [8], the “ratio OE” value was 574.

B13: Ab 376 (antibody, V domains shown)
VH: DVKLVESGGGLVKPGGSLKLSCAASGFTFSSYTMSWVRQTPEKRLYWVATISSGVSYTYYPDSVKGRFTISRDNAKNTLYLQMSSLKSEDTAMYYCTRLTKGNAMDYWGQGTSVTVSS
VL: DIVMTQSPSSLTVTAGEKVTMSCKSSQSLLNSGNQKNYLTWYQQKPGQPPKLLIYWASTRESGVPDRFTGSGSGTGFTLTISSVQAEDLAVYYCQNDYSYPFTFGAGTKLELK
For the molecule B13, the binding result with mouse CLDN18.2 was “no binding (tested: 0.32 nM to 1000 nM)”.

B14: Ab 384 (antibody, V domains shown)
VH: QVQLQQSGAELARPGASVKLSCKASDYTFTSYVISWVKQRTGQGLEWIGEIYPRNGNTYYNEKFKGKATLTADKSSSTAYMELRSLTSEDSAVYFCARSYYGNSFAYWGQGTLVTVSA
VL: B13 VL with K45R, G76D, Y93C, D97N, S99Y, A106G, E111G, L112I
For the molecule B14, the binding result in the experiment with mouse CLDN18.2 is reported as “no binding (tested: 0.32 nM to 1000 nM)”.

B15: Reference antibody 2 (Benchmark 2-163E12) (antibody, V domains shown)
VH: QVQLQQSGAELARPGASVKLSCKASGYTFTDYYINWVKQRTGQGLEWIGEIYPGSGNTYYNEKFKGKATLTADKSSSTAYMQLSSLTSEDSAVYFCARSYGAFDYWGQGTTLTVSS
VL: B13 VL with G76D, F102L
As for B15, the binding result with mouse CLDN18.2 was “no binding (tested: 0.32 nM to 1000 nM)”.

B16: Ab 392 (antibody, V domains shown)
VH: EVQLQQSGPELVKPGASVKMSCKASGFTFTSYVMHWVKQKSGQGLEWIGYINPYNDDIKYNAKFEDKATLTSDRSSSTAYMELSSLTSDDSAVYFCTRGDYWGQGTTLTVSS
VL: B13 VL with A15T, S22D, P46S, T59I, E61K, G76D, Q95L, Y100F, F102L
As for B16, in the experiment with mouse CLDN18.2, the binding result is on record as “no binding (tested: 0.32 nM to 1000 nM)”.

(Values after US11834499 (University of California, dated 2023).)
